From paper PMC4731314 (Cell reports, 2016) come the findings set out here.

Residue numbers refer to the chain shown, from its start.

The series deals with the molecule itself. In words: AUC.

B1: full-length Imp2 purified from S. pombe (natural protein, UniProt Q10199 1-670, looked up)
chain: MSQQLSFNASSAKPDKSFSNYFWGANDEGYHALLSRFSDVKHINEELRSFYHERANIEEDYAKRMAKLSRTTFSSLETGCLKESVQVMKAEVDNMAKSHLQISQLLQDDVENAFTRYAASLKDKKKMIVSGIEKVHKDKLSKHQALVKAQDKYHYLCKKVNYYVSQQNMLFGKELEKNNAKLNKTQNAITASSSDYQSAVAAVRDSYARWTNEWRSTCDKLQDIEEERRHFLKSVMWTFTLLISRSCFNDDQACERIRKNLEQCSVSQDVLEFIDAKSTGTGIPQPPKFYDYYKGEVPDDSVELVQANFQRAQTKIENDNMPLNRPYVLSATARNESSFENTLPNTPSAIQSLTTVSSNSSQNGRSSPKKSFLSKFKLTSRPSTPNVGNTAPDALSSPRNDSPLTSAADEQMKHLSLQEEPKQNPTPAAPGAFPNSNTLPPRYNELGSLPSPNSVSFTEDSRPNVNTPSRRQQIQEEFGSVLQMENRAVSPVYDSRKNGSRSSFTLRKSRSPKRPSSSLSQNASRLPRSLTPGNLEPNYDFGVRVDPASGTAPTDDEPYTDRDSSFVDDTINTKATGNTSNRLSLPAYPTDGGDTSIDNPTSTDGQRILGYVSALYDYDAAIPEEISFRKGDTIAVLKLYEDGWWEGFVVGEDDHNRGQFPSNFVREIEV
Take B1: the binding result is “binds”.

B2: Imp2(Dimer-Dimer-4A) purified from S. pombe (natural protein, UniProt Q10199 1-670, looked up)
chain: B1 chain with K97A, Q101A, D109A, R116A
For B2, the stoichiometry N (in general, a count of units in the complex or per binding partner) was 2.
